Reference: a protein production outcome set (Wang et al. 2014)

Assay: label from the status in PepcDB records

Row | Sequence | protein production
1 | MKTFNESNGTNANVLMVGLTLVQAAAAKGAVCLDGSVPGYHLCRGYGSGANNWIIQLQGGAWCDSIQNCQSRKGSGYGSSTLMEKELAFLGLLSNKAAENPDFYNWNKVKVRYCDGASFDGDSENKAAQLQYRGKRIFLAVMEDLMEKGMRQAKQALLSGCSSGGLSAILRCDDFNNLFPPTTTVKCMSDAGFFLDAVDVSGGHSLRRMYSGVVNTQGLQNTLPPTCTSHIKPFLCFFPQYIINQVKTPLFILNSGFDSWQIGNSLAPPSADKSGSWHNCSFSFRCTASQMHFLEGFKMSMLDALKTFSKFSKNGVLITSGWAHCQAERQDTWFPGYSGAGKAKGIAVAVGDWYFERTKQNSS | failed
2 | MKTIAVLLTALLLATGCGNKESTGETASDEPEIVMMDESTSVGELPSILKEGLSNKEQDELKKQIMPILDDGLTPEQRFLNLRKDAEAGNAEAQNSLGSMYFSGEAISRDAQGKVKDKDPETAAGWFFRAAEQGHAGAQFNLGLLYFSGEGVTRDTAKAVELFTKSAEQGNIDAQNNLGVIYLMGEGVKQNTDKAIEWFEKAAEQGNEEAIKNLEAVRASQQDSKEAADKQK | failed
3 | MKTIRSIGRFAVLAAMAALFAGCAGQQVKSEQRFFWPPLPERPRIEWLNAYSSQNDFPKSATEKFLTTIIGEEEGISLSKPITVRSDGRGKVYVGDPGAPGVYVFDFVNNIMRPFGKAEAEARIEQPVGIAIDENGRIYVSDTKKAAIMVFHQDETPAALINLKGMVEKIGDIAYDRIGKHLLALDVRGHKVLVLSLRGELLSSFGNRGTKPGEFNFPSALTVNNKGEIIVADAMNARIQIFSSDGKFLRMFGQRGDSPGTLQLIKGVAVDSDDNIYVTDGKGHKFEIFSTTGDYLLTVGGAFSALTTGKTAPGGFVIPQGIDIDKDNMIYVVDQLNRRFQVFRYISDSYLKANPIPGYTPSP | failed
4 | MKTKAKISSRWLRFRALLIDIFLIYIPILYLFYFLLGSKEAFLNNHFITTLCTFLFGLIQAIFLTKKAQSPGLKAYDLYLIDIKTGKKLSFLRILLRYVIFIISFGLLFGLFVSFVRKDRLNLHDILTQSCIATKSIKKG | failed
5 | MKTKTLNTNRFIKLSLLSAIAVILMYIDFPVIPIFPWLKIDLSDVPALMGAFAFGPLAGVIIELMKNLLILIVKGTGTGFVGELANFLVGVALVWPAALVYKKNKTKKTAILGMVLGVLCIEVVGILANVYLLLPAYGMAMSKAELMQYVTVGLIPFNGIKSILVCGITYALYKKVSVSIFKVEPMLDKPKQMKENLG | failed
6 | MKTLLIAWHSRTGAARQMAQALERGALAAALALEQPGQLRVRRQAASRTDAAALLAADGYLFCAPENLGSLSGAMKECFDRCYYGVLDRIQGRPYGVAISAGTDGEGAARQVERICTGWRLRAAAPPLIARSGAQTPEQIAAPKQVPADVLARCEELGGLLAATLLMGSLEHHHHHH | failed
7 | MKTLLSRSTAVPAKLLAATAITATLSAPAFSADANVESLVKAAQKEGSIYSVGMPDSWANWKDTWADLQSNYGLKHQDTDMSSAQEIAKFEAEKKNATADIGDVGFAFARVAVKKGVTQPYKPTTWNDIPDWAKDKDGHWALAYTGTISFISNNNLVKDAPKTWGDLLKGDYKVTVGDVGVAAQANNAVLAAAFANGGDESNLKPAIKFFAELAKQGRLSFTDPNIANLEKGEVEVAIMWDFNALNYRDKIDRERFTVTIPQDGSVISGYTTIINKYAKNPNAAKLAREYIFSDQGQINLAEGYARPIRTSITLPKSVQDKLIANDQYSNVHPVTDFSAWEKSARKLPRQWQESVLIHQQ | failed
8 | MKTLVDHLSQYANYHRDPRNIATHFVGIPMIVLAVTILLSRPGWEIAGMWLSPALLAAAASVWFYLRLDLRFGLVMGLLLGLCLWVGEALAVQSTTLWLGAGLGAFVVGWIIQFIGHYYEGRKPAFVDDVSGLIIGPLFVVAEAAFMLGLCPTLKRAVEANAGPIAMRQKKASV | failed
9 | MKTLVHLSDLHFGKTESHLVDAIAAEVRAVDSDLLVVSGDLTQRARKDEFLQARAFLDSLPGPRIVVPGNHDVPLWNVFARAMTPLSRYRRYIEADTDPFYADSEVAVVGINTARSLTIKNGRINVRQLKAATEKFAYMSDDITRIVVTHHPFEGLDLESDDGIVARADLAMDAFSRSGVDIILSGHQHLHRAGSSARRYLIDGYAALLVQAGTAVSSRVRQAANSFNIIRIEHPRISIECRAWQSLQSGFETSASYSFRQGSGGWEPALEHHHHHH | failed
10 | MKTLVIVAHPNLETSVVHKRWVEELKKYPEKYTVHELSDVYPDGNIDAEKEQKLVESHGNLVLQFPIYWFNCPPLLKKWLDDVLAYGWAYGSNGGDRLNNRKVALGVSAGIKEEDYRENGRYRYTLEQILVPFETTFRYCRADYRSFFAFYGKEKEPGGNEEEENEPGAGELEKSARDYLHFIDHM | failed
11 | MKTREEKMNKTILLLACLLGLVACSSQYIMSTKDGKMITSDSKPKLDKTTGMYLYYDEDGREVMIKQEDVTQIIERLEHHHHHH | not failed
12 | MKTRLMEAWKAHRSVMVQMPTGTGKTHLLASVVSEFVSSAGSGVWLIAHRRELVAQMEETLAKYGIRREDTPVRVMSVQWLSRHWNEAGDAPGLIVIDEAHHALAASYTEMWKRYPAAKKLGVTATPCRLNRRGFTELFEVLVTSWSIAEFIEKGVLSVFDYVSIRPGSEERRLIDGLEKRGADGDYQVKEMDAVLNRRPGIERLYRSVRQFASGKKGMVYAISIEHARRIAEYYSRRGVNAVAVDSKTPAMERKRMVEEFRHGKIEVLVNVDVFSEGFDCPDVEFVQLARPTLSLAKYLQQVGRGLRRSEGKEACMLIDNVGLYRIFGLPTQRWNWDAMFRGRMAGKGSLPGRMNCDASVTAFPVVERPAEAGGDLVVVMEHGRLLSSIREQALPDEKEQSPSCRLRAFVDKETGLWGLEKGDEMLPDASFKEVLSIKGRFAVGRLRNGCVRVLDDTGALVAEPGHCREVRFLKDDLLQVRHAGNSVSYVDLRNGRCYSVRPRVLRYGSIELLQANRTYYSRTRQVYANTCGLPSSSIVWMGFYVKMYDGRVPSRCRRMEDGGFCCEPQVCLLEGDEERAYYLSGRLPDQSIVVMDEEGRYYHVEKGHGKRYVACLEHHHHHH | failed
13 | MKTRSSDAEGDSRGKMIAPVGEGNGGRKRKLVQSNEQKNDIQREEDGRAKRRIVQSSDQKNGKILRGIRGCVSPRCSAQTYQSRFSWYEQDIWTYISRFLDGKSLVKLGATNKWFYKIAMEDTVWRFACLRDLQVPVPFPVSSTWIKIYASAFDGSHSYLFRQKEKHIGAFVLDSRTSLLTESLSGRLKFPREGTIERMLQSSGSCLINDIKSGIWIADLQLVRCPVCDLSTCDGTMQTLDARHIELFLSEGYKDGSWDYNLIGSHKLQKNASAACGAIFDLKHLKESSYSGILNLKSWTGESNDSQPKAVIAPHAVAVHTRLQENEGILVKYHTMKAGTDGDIVSIRISQQLL | failed
14 | MKTSRSSIGKSIFLAATMLATGSAAWAGQAPGALSSPDIPISHHDRVYAAEQFSNTVSVTDPVDNKLLGVIRLGDPQPGNFSPLYKGQVLVHGMGFSPDHKMLAVVSIGSNSVTFIDTATNAVKHTTYIGRSPHEAFFTPDGKEVWVTVRGENYISVIDPQSFEERRRITTPSGPGMQMFSPDGKYAYICSSFNPETDVVAVAEHKIIAKVKQESPFCPNIAVTPDGNQVWFTLKDTGRTQVFNARPPFNPIRTIDTGPITNHVNFAHTARGTFAYVTIGGLNQVKVFRTDDFSQVATIPVGNLPHGVWPSGDGTRIYVGLENADALAAIDTATNSVVANVPIGQAPQAIAYVPGAAPNPDDRQNLQALGVAGQFAHLALASRDGSKDGKAPTSVSLFDQGLIQILQASVTGLEPRQKYVLALAEHGDGSGTLQPLAAFMTNPAGSAIVNAAGPIRQIVDQSAAAARRYLVIASGDVAMPGEAVQIEAQ | failed
15 | MKTVLAFGDSLTWGADPATGLRHPVEHRWPDVLEAELAGKAKVHPEGLGGRTTCYDDHAGPACRNGARALEVALSCHMPLDLVIIMLGTNDIKPVHGGRAEAAVSGMRRLAQIVETFIYKPREAVPKLLIVAPPPCVAGPGGEPAGGRDIEQSMRLAPLYRKLAAELGHHFFDAGSVASASPVDGVHLDASATAAIGRALAAPVRDILG | not failed
16 | MKVAVLDFGKTNSKLFVFGQDGGILDERRTQPKWTHQDGFSVLDEAALHDWALGAVTEAVENHGVEGVMVSGHGCTFALVDDAALTHPILDYEQEPPAEIAARIDHRIPDFAETFSPRLPLGFNYGRHMLWVQEVDPDAFAAAKSILGYPQYWSWRLGGRPVSEVSYLGCHSHLWAPRSQDFSSLVDAEGWRGQMPAFARAGAVIGERRLGSSSRPIAIHNGVHDSNAALHAYRLEHHHHHH | not failed
17 | MKVDVDEKTYIITMANDITKLYEENKRNLHYSITDPLTGAYNRKYLNDRFDIFIGDYIVLIDLDNFKMINDYEGHNVGDKILCDFVSLLNKELINSTSIIRLGGDEFIVIFSSDVDKNYVYSQLEALRENFLKVFSKYKYLSFSYGVDTVKRNLKLTIVELDKKMYKNKEKNKKKFDKNLEHHHHHH | not failed
18 | MKVEEILEKALELVIPDEEEVRKGREAEEELRRRLDELGVEYVFVGSYARNTWLKGSLEIDVFLLFPEEFSKEELRERGLEIGKAVLDSYEIRYAEHPYVHGVVKGVEVDVVPCYKLKEPKNIKSAVDRTPFHHKWLEGRIKGKENEVRLLKGFLKANGIYGAEYKVRGFSGYLCELLIVFYGSFLETVKNARRWTRRTVIDVAKGEVRKGEEFFVVDPVDEKRNVAANLSLDNLARFVHLCREFMEAPSLGFFKPKHPLEIEPERLRKIVEERGTAVFAVKFRKPDIVDDNLYPQLERASRKIFEFLERENFMPLRSAFKASEEFCYLLFECQIKEISRVFRRMGPQFEDERNVKKFLSRNRAFRPFIENGRWWAFEMRKFTTPEEGVRSYASTHWHTLGKNVGESIREYFEIISGEKLFKEPVTAELCEMMGVKD | not failed
19 | MKVELPQGGYQGLAGDGVVEFRGVPFALPPVGELRFKAPRPLPDSDRSVNADRYPLPSLQVKNPLMGVEDSGEDCLYLNIWVPEGEGPFPVMLWYHGGGYIAGSVSQPLYNGAALAASQKVVVVHAAYRLGAHGFADFATIAPELEADSNLGLRDQVAALEWVNRHIEAFGGRPDRVTLFGESAGGFSVATLMATPRARPLFQAAIVQSGAGDFALAPEEVAKVTSAFVEALPGDGSAADKLRQADPKAWIAAQNQALRTLVKRGLRDTTPQFAMNFQPMVDGDLLPRLPVDAIADGEARDIALMASVCRDEYHFFQYAGPMAGFPSVEELRRFDEAEILRRFQRALPQHGQQALSYYQRTVTPDPQRSNMDWFSAMETDRLFRVPTLRLLDAQAAHRDDTRGLQFTWTSQQFGVPMGACHVIDVPFVFGVTDTPAGMFFTGGGEPARALAAEVQKVWGDFAHGRAVQGPAWKDTRRVRQFGPGDAEAALLDADGEALWADIIPVPGTAKPGQGA | not failed
20 | MKVIETKYNGKLEVAEDRLIAFDQGIPAFEDEKEFVLLPFAAGTPYYTLQSTKTVDLAFIIVNPFSFFPEYRVKLPEATIVQLNITNENDVAIFSLLTVKEPFSETTVNLQAPIVINANKQMGKQLVLGDTAYDRKQPLFQKELVLAKEAK | not failed
21 | MKVIGINGSSRKDGNTAILIQTVFEELTKEGIETELIQLSGKNIEGCKACWACHKNRNKQCVITDDFFNECFAKMLVSDGIILGSPVYSAGVTSQMKALIDRASMVLAGNRGLFKHKVGASVVAARRGGAISAFGTLNNFLHSKEMFLVGSSYWNMAYGNAIGEVEQDQEGIDNMKNLGQNMAWILKKIHNS | failed
